Test results reported in patent US20220144895A1, “DE NOVO DESIGN OF TUNABLE PH-DRIVEN CONFORMATIONAL SWITCHES” (University of Washington, priority 2019, published 2022).
Entries after “also recorded” stand apart in the source; their conditions may differ.

Key:
[1] = Size-exclusion chromatography (SEC); type: physicochemical; details: Superdex 75, Na2PO4-Citrate buffer pH 4
Experimental: Cells were lysed by microfluidization in the presence of 1 mM PMSF. Lysates were clarified by centrifugation at 24,000 ref at 4° C. for at least 30 minutes. Proteins were purified by Immobilized metal affinity chromatography (IMAC): supernatant was applied to Ni-NTA (Qiagen) columns pre-equilibrated in lysis buffer. The column was washed twice with 15 column volumes (CV) of wash buffer (25 mM Tris pH 8.0 at room temperature, 300 mM NaCl, 40 mM Imidazole), followed by 3-5 CV of high-salt wash buffer (25 mM Tris pH 8.0 at room temperature, 1 M NaCl, 40 mM Imidazole) then an additional 15 CV of wash buffer. Protein was eluted with 250 mM Imidazole, and buffer-exchanged into 25 mM Tris pH 8.0 and 150 mM NaCl without imidazole for cleavage of the N-terminal hexahistidine tag by purified hexahistidine-tagged TEV protease (with the exception of design pRO-1, which was cleaved using restriction grade thrombin (EMD Millipore 69671-3) at room temperature for 4 hours or overnight, using a 1:3000 dilution of enzyme into sample solution). A second Ni-NTA step was used to remove hexahistidine tag, uncleaved sample and the hexahistidine-tagged TEV protease, and the cleaved proteins were then […], 150 mM NaCl, and 2% glycerol.

[2] = Native mass spectrometry of pH-induced changes in oligomeric state; type: physicochemical; details: for pH response of oligomeric state (pH-induced disassembly): pH ~7 to ~3
Method in brief: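 Protein in 200 mM ammonium acetate/50 mM triethylammonium acetate, acid-adjusted to each target pH, was held 30 min on ice and sprayed by nESI at 5 μM monomer or 1.67 μM trimer. Oligomer fractions came from integrated charge-state series, then fitted by nonlinear least squares.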

[3] = test system: U2-OS cells; assay: Lysosomal pH with LysoSensor Yellow/Blue DND-160; type: cell-based; details: 5 μM protein, 1 hr, LysoSensor yellow/blue ratio
Experimental: The final concentration of 5 μM+36GFP fusion proteins was incubated with the LAMP1-HaloTag™ expressing U-2 OS cells on a pre-coated coverslip for 1 hr. Cells were fixed with 4% paraformaldehyde for 20 min at room temperature (RT) and quenched/rinsed with PBS supplemented with 30 mM glycine. Then, the coverslips were mounted on FluoroSave™ (Millipore). For pH measurement of the lysosome, LysoSensor™ Yellow/Blue DND-160 was incubated at 1 mg/mL overnight and washed twice prior to imaging (54). The final concentration of 5 μM protein was incubated with the LAMP1-HaloTag expressing U2-OS cells that were loaded with 1 mg/mL LysoSensor™ Yellow/Blue DND-160 for 1 hr. In separate chambers, LysoSensor™ Yellow/Blue DND-160 loaded cells were incubated with bafilomycin A1 (1 μM) and chloroquine (50 μM) for 1 hr as a control. For live cell confocal microscopy, Zeiss 880 was used to collect LysoSensor™ Yellow/Blue signal. LysoSensor™ Yellow/Blue was excited with a 405 nm laser, and its emission was collected into the two regions (Blue=410-499 nm Yellow=500-600 nm) using a Plan-Apochromat 63×/1.4 oil DIC objective. The ratio of the two channels was calculated using the home-built software in Matlab™.

B1: pRO-2: designed pH-responsive homotrimer, SEQ ID NO: 1-2 (protein)
chain 1: MGSHHHHHHGSGSENLYFQGSEYEIRKALEELKAATAELKRATASLRAITEELKKNPSEDALVEHNRAIVEHNAIIVEHNRIIAAVLELIVRAIK
chain 2: SEYEIRKALEELKAATAELKRATASLRAITEELKKNPSEDALVEHNRAIVEHNAIIVEHNRIIAAVLELIVRAIK
[1]
  state by SEC at pH 4: soluble aggregate
[2]; native MS
  pH response of oligomeric state (pH-induced disassembly): predominantly monomeric at pH 4
[2]; pH lowered with acetic acid, then raised by ammonia or buffer exchange
  reversibility of disassembly: re-association of monomers into trimer

B2: pRO-2 I56V: pRO-2 mutant, SEQ ID NO: 17-18 (protein)
chain 1: MGSHHHHHHGSGSENLYFQGSEYEIRKALEELKAATAELKRATASLRAITEELKKNPSEDALVEHNRAIVEHNAIVVEHNRIIAAVLELIVRAIK
chain 2: GSEYEIRKALEELKAATAELKRATASLRAITEELKKNPSEDALVEHNRAIVEHNAIVVEHNRIIAAVLELIVRAIK
[2]; native MS at different pH values
  cooperativity of the pH-induced transition: Neither of the mutations substantially affect the cooperativity
[2]; native MS, evaluated from pH 7 down to pH 3
  pH transition point of disassembly (pH set point, pH0): approximately 5.8 pH
[2]; native MS
  pH response of oligomeric state (pH-induced disassembly): most pH-sensitive
[3]
  change of lysosomal pH: larger changes in lysosomal pH than two drugs; also recorded: increases the lysosomal pH more than the small molecule drugs
[3]; listed as pRO-256V
  change of lysosomal pH: raises the lysosomal pH
